Assay results from US20140377289A1, “Metallodrugs Having Improved Pharmacological Properties, and Methods of Manufacture and Use Thereof” (MetalloPharm, LLC, priority 2011, published 2014).
Where no end group is shown, it is not given here. [ ]: non-standard residue; d: D form. Cha = N[C@@H](CC1CCCCC1)C(=O)O

What was measured:
[1] = molecular target: T1, S. aureus sortase A (S. aureus), Q2FV99; assay: apparent binding affinity (IC50) for S. aureus sortase A; assay not described
T1 chain: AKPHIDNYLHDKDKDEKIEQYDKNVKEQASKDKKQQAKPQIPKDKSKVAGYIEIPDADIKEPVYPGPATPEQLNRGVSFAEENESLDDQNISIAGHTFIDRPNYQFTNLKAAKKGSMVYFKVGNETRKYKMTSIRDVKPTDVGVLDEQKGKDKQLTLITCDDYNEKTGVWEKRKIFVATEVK

[2] = molecular target: T2, B. anthracis lethal factor (B. anthracis), P15917
T2 chain: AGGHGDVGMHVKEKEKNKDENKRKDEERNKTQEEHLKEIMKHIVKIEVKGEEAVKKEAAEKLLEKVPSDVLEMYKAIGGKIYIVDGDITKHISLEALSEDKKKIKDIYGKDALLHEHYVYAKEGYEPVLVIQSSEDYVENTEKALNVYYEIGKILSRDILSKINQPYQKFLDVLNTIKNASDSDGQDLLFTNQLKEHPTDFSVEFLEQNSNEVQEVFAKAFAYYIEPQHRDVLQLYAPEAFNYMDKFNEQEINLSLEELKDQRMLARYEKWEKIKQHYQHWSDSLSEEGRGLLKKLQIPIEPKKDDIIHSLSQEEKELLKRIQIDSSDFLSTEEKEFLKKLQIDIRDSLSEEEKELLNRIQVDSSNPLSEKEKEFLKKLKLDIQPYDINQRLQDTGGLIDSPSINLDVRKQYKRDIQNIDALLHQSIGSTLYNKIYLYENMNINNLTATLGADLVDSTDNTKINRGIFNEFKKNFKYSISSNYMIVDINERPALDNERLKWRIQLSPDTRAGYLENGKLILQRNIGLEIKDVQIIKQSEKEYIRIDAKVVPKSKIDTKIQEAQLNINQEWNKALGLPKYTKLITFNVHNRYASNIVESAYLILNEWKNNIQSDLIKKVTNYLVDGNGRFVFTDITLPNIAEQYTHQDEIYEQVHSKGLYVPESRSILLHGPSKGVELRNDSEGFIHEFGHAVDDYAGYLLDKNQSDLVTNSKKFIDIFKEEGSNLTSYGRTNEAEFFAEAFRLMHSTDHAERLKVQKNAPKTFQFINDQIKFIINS

[3] = molecular target: T2, B. anthracis lethal factor (B. …); assay: cell-based or functional assay
[4] = molecular target: HCV protease (hepatitis C virus (HCV)); assay: cell-based or functional assay
[5] = molecular target: HCV protease (hepatitis C virus (HCV)); assay: apparent binding affinity for HCV protease; method not described
[6] = molecular target: HCV protease (hepatitis C virus (HCV)); assay: inhibition constant for HCV protease (FIG. 1, left); method not described
[7] = molecular target: HCV protease (hepatitis C virus (HCV)); assay: affinity of metallopeptide for HCV protease; method not described
[8] = molecular target: T3, metalloproteinase ECE-1 protease, P42892; assay: cell-based or functional assay
T3 chain: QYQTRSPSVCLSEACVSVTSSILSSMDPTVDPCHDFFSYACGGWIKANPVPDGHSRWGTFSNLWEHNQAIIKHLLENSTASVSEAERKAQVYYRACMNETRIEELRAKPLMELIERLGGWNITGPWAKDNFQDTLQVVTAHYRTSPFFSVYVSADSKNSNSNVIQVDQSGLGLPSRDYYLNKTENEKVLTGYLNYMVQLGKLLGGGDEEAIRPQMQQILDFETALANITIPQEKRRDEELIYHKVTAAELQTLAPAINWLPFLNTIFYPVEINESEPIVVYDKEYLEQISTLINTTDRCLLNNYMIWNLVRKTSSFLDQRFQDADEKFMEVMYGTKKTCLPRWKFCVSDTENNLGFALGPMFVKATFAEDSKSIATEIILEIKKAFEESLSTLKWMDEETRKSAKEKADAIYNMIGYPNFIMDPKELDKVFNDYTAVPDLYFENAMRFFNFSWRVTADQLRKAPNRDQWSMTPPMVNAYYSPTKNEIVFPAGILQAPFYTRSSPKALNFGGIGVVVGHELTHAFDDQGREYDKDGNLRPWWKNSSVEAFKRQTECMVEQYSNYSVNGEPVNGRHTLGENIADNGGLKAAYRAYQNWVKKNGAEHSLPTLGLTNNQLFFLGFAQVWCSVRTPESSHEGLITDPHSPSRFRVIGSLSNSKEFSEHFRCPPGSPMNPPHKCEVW

[9] = molecular target: T3, metalloproteinase ECE-1 protease, P42892; assay: apparent binding affinity for ECE-1; method not described

Which IC50 [1] does the source give for GGHLPET (modifications not checked) [Cu-GGHLPET] here?
The IC50 was > 100 µM.

Which results are given for KGHK (modifications not checked) [Cu-KGHK]?
Ka [2]: 125000 M⁻¹; kinact [3]: 0.035 min⁻¹

How did the IC50 [1] turn out when GGHLPETG (modifications not checked) [Cu-GGHLPETG] was run?
The IC50 was > 100 µM.

For GGHGD[dE]LI[Cha]C-OH (also: Cu complex) [Cu-GGHGDeLI(Cha)C-CO2^-], which kinact [4] is on record?
The kinact was 0.0014 min⁻¹.

What about the rate constant for inactivation kinact [4] of the same binder?
The rate constant for inactivation kinact was < 0.083 h⁻¹.

And the Ka [5]?
The Ka was 2e+06 M⁻¹.

What about the Ki [6] of the same binder?
The Ki was 0.5 µM.

GGHD[dE]LI[Cha]CP[Cha]DL [Gly-Gly-His-Asp-D-Glu-Leu-Ile-Cha-Cys-Pro-Cha-Asp-Leu] was tested. Which affinity [7] did it give?
The affinity was 10 nM.

How did the Ka [2] turn out when GCHP (modifications not checked) [Cu-GCHP] was run?
The Ka was 45000 M⁻¹.

And the kinact [3]?
Its kinact is 0.077 min⁻¹.

With GGHGD[dE]LI[Cha]T (also: Cu complex) [Cu-GGHGDeLI(Cha)T] as the binder, how does the kinact [4] read?
Its kinact is 0.042 min⁻¹.

What about the Ka [5] of the same binder?
The Ka was 33000 M⁻¹.

GGHGLPETG (modifications not checked) [Cu-…] was tested. Which IC50 [1] did it give?
Its IC50 is > 100 µM.

With GGHGLPET (modifications not checked) [Cu-GGHGLPET] as the binder, how does the IC50 [1] read?
Its IC50 is > 100 µM.

For GGHGGDF (modifications not checked) [Cu-GGHGGDF], which kinact [8] is on record?
Its kinact is 0.5 min⁻¹.

What about the Ka [9] of the same binder?
The Ka was 80000 M⁻¹.
